The values that follow come from US11066655B2, “RNA polymerase, methods of purification and methods of use” (President and Fellows of Harvard College, priority 2013, dated 2021).

One test relates to Syn5 promoter. Description: Cross recognition of promoters, gel transcription assay. Type of test: biochemical, cyanophage Syn5. Conditions: for transcription from a Syn5 promoter: T7 DNA fragment with T7 promoter replaced by Syn5 promoter. The protocol: FIGS. 3A-3C depict characterization of the Syn5 promoter. A) Determination of the 3′-end of Syn5 promoter. 3′-dATP, 3′-dGTP, 3′-dUTP replaced ATP, GTP and UTP, respectively, as chain terminator to sequence the 5′-end of Syn5 RNAP transcript on a template same as template 1 in FIG. 2B. Once the 5′-terminus of the transcript was determined, the sequence preceding it should be the promoter and the 3′-end of the promoter can thus be defined. A 25% TBE-urea gel was used for this assay. B) Cross recognition between Syn5 and T7 transcription systems. Syn5 RNAP synthesizes runoff products on a fragment of T7 DNA provided the T7 promoter is replaced by a Syn5 promoter (lane a). Syn5 RNAP fails to produce transcripts if the first nucleotide downstream of the promoter is changed from G to T (lane b). […] T7 RNAP produces runoff and “N+1” products upon its own promoter (lane e). Sequences of templates can be found in Table 1. C) Schematic showing the identity of the two promoters based on the above data and previous bioinformatics analysis on the Syn5 and P-SSP7 genomes, respectively. Syn5 RNAP transcribes DNA fragments containing a Syn5 promoter to produce transcripts (>1500 for template 1, lane 1; and >200 nt for template 3, lane 3).
For the gel assay results shown in FIGS. 1, 2, 3, and 13, reaction mixtures (20 μl) contained 40 mM Tris-HCl (pH 7.9), 6 mM MgCl2, 2 mM spermidine, 10 mM DTT, 200 µM[…]P, GTP and UTP, 10 µM [[…]-^32P]CTP, 1.5 U/µl RNaseOUT™ recombinant ribonuclease inhibitor (Invitrogen), 100 nM Syn5 or T7 RNAP, and DNA templates as described in the figure legends (either 2 nM phage genomic DNA, 4 nM purified PCR products, or 1 µM synthetic dsDNA fragments). Reaction mixtures were incubated at 24° C. for 30 min. The reaction mixtures described in FIG. 6 contained 40 mM Tris-HCl (pH 8.0), 200 µM[…]P, GTP and UTP, 10 µM [[…]-^32P]CTP, 1.5 U/µl RNaseOUT™, 50 nM Syn5 RNAP, DNA templates, and various amounts of MgCl2, FeCl2, MnCl2 and KCl as described in the figure legends. […] After electrophoresis, gels were dried and analyzed using a Fuji BAS 1000 Bioimaging Analyzer.

In test [1] the test system is DNA templates S5P-tDNAR or T7P-tDNAR. Description: Synthesis of tRNA^Arg at preparative scale, sequencing gel. Type of test: biochemical. Conditions: 200 µl reaction, 37° C. The protocol:
FIGS. 11A-11B depict synthesis of tRNA^Arg by Syn5 and T7 RNA polymerase. A) Synthesis of tRNA^Arg at analytical scale by various amounts of Syn5 and T7 RNA polymerase. Using radioactively labeled CTP, the tRNA^Arg and N+1 product (as marked) produced by 22, 67, 200 nM Syn5 and T7 RNA polymerase at 37° C. are shown. […] The DNA encoding E. coli tRNA^ArgACG is directly downstream of a Syn5 or T7 promoter for the cognate RNA polymerase to synthesize run-off tRNA transcript. B) Synthesis of tRNA^Arg at preparative scale by Syn5 and T7 RNA polymerase. The sequencing gel is showing the analysis of the total RNA products by Syn5 and T7 RNAP at 37° C. in a 200 µl reaction. […]
For the results shown in FIG. 11A, reaction mixtures (10 μl) containing 40 mM Tris-HCl pH 8.0, 6 mM MgCl2, 2 mM spermidine, 10 mM DTT, 200 µM[…]P, GTP and UTP, 10 µM [[…]-^32P]CTP, 1.5 U/µl RNaseOUT™ recombinant ribonuclease inhibitor, 0.5 μM DNA templates S5P-tDNAR or T7P-tDNAR, and various amount of Syn5 or T7 RNAP were incubated at 37° C. for 30 min before adding of one unit of DNase I to each reaction mixture and an additional incubation of 15 min at 37° C. […] After electrophoresis, gels were dried and analyzed using a Fuji BAS 1000 Bioimaging Analyzer. […] RNA quantification was based on OD260 measurement using NANOPHOTOMETER (IMPLEN). […]

Turning to “T7 RNAP: RNA polymerase encoded by bacteriophage T7, from New England Biolabs [reference compound]”, the “transcription from a Syn5 promoter” value with Syn5 promoter is “does not initiate transcription but does catalyze some non-specific RNA synthesis”. Further, the “N+1 products in total products” value in test [1] is given as “more than 50%”.

B1: Syn5 RNAP: single subunit DNA-dependent RNA polymerase from marine cyanophage Syn5, amino acid sequence SEQ ID NO:23 (protein)
chain: MSFDLIARQLQRETEAAELARKRLQDARREANERSYASSNIESRKAIATFLDPIAQRIGERLFTLRRGTGAVDAAEVYKHLKNADHHHLALITMKTALDVLGKDPEPQIQQLTTAIGRNIQLELRLTYYAEENPELYKQASRFFHAGTGTRQKATVIKLKFNREGIEWDQWSRVTCHKVGQWLMLAMADVTGWIERATDRTSGGRKTKTRICYSREFLQHRDTILAAAEQLAFCQWPMLCPPIEWSNDHNGGYLSEQIRRVNPLIRKTGPLGTRKQGDIPLAMLNNLQGQAYKVNPEVLDIANHCYESNVTVGKFIRHAPLPVPPSPGEDCTEDQLTAYKRARREAEDFNAQISQKNWRTTEVMYVARKYADEASFWMPASFDYRGRVYFLNTALNPQGTDFDKALLYFAEEGPVNEWWLSFHVATTYGLDKETMVNRVQWARDNHELIDRIASDPVRHTEWHDADEPWCFLAACLEYKACVIDGTKQTSGLPIGIDATCSGLQHLAAMTRCGRTAALVNVTPTDKPADAYKTVAQASLKHLPKEQHEWITRKVTKRPVMCTPYGVTMSSARGYIRDQLVKDGHKEDLRSPGVLNGIVKAIFNEAIPEVIPGPVQVMAWLKRSAGQIIDRGDSTITWTTPSGFEVVQDLKKSKTYEVKTRIMGGARIKLQVGDGFTDEPDRDHHKSALAPNVVHSNDASLLHLTFAFWDKPFTVIHDCVLGRSCDMDQMGSDIRLHFAEMYKADVMQDWADQVGVELPVDLIKNTLDIDSVNQSLYFFS
modifications: Amino acid sequence of a cyanophage Syn5 RNAP
As to B1, the “first nucleotide after promoter changed from G to T” value in the test with Syn5 promoter (FIG. 3B lane b) is on record as “unable to incorporate UTP as the first ribonucleotide”. In the test with Syn5 promoter, the “transcription from a Syn5 promoter” value is reported as “produce a run-off product of the expected size”. Also, the “N+1 products in total products” value in test [1] is on record as “negligible”.
